Earlier results on two substances are cited in PMC8506081.

Data set [1] deals with PSD-95 PDZ2 (Homo sapiens) (UniProt P78352).
The target of another data set is PSD-95 (Homo sapiens) (UniProt P78352).
Sequence of PSD-95 (Homo sapiens) (P78352 whole entry): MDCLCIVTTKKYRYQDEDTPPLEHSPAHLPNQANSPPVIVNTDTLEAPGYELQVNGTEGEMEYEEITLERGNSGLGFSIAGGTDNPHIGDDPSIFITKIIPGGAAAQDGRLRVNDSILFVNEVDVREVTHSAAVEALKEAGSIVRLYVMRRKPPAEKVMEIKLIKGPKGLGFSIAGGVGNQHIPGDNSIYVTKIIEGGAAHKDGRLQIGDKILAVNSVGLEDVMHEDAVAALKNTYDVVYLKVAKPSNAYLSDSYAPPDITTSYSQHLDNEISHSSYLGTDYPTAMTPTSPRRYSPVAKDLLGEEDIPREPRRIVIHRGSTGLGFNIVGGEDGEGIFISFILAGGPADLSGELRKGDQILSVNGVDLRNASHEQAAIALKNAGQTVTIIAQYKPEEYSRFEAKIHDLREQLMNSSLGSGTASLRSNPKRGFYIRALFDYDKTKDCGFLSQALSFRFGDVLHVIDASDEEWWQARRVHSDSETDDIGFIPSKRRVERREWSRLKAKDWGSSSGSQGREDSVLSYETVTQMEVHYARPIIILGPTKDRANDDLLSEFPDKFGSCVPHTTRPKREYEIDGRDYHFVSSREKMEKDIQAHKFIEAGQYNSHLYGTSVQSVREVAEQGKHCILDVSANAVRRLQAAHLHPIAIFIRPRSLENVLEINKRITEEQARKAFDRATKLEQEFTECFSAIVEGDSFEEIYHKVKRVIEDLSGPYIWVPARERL

Sequence of PSD-95 PDZ2 (Homo sapiens) (P78352 157-249): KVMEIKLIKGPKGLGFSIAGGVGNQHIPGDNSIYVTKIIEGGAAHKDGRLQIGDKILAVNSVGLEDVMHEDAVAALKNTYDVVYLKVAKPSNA

NA-1: the inhibition constant Ki in data set [1] was 4.4 µM. On to AVLX-125, for which the Ki in the data set with PSD-95 (Homo sapiens) is 0.01 µM.

By Ki is commonly meant the equilibrium dissociation constant of an inhibitor or competing ligand from its target.
